According to patent US20220348665A1:

What was measured:
[1] = target: human IGF1R, endogenous, on the surface of breast cancer cell lines (MCF-7, JIMT-1, BT474) (human) (UniProt P08069); test: FACS on MCF-7 cells (FL1-H), anti-human FITC; same table: Untreated 2.51, 2nd Ab only 4.53
[2] = target: human IGF1R, endogenous, on the surface of breast cancer cell lines (MCF-7, JIMT-1, BT474) (human) (UniProt P08069); test: FACS on BT474 cells (FL1-H), anti-human FITC; same table: Untreated 1.8, 2nd Ab only 1.93
[3] = target: human IGF1R, endogenous, on the surface of breast cancer cell lines (MCF-7, JIMT-1, BT474) (human) (UniProt P08069); test: FACS on JIMT-1 cells (FL1-H), anti-human FITC; same table: Untreated 1.36, 2nd Ab only 1.89

Chain of IMC-A12 (antibody) (VH): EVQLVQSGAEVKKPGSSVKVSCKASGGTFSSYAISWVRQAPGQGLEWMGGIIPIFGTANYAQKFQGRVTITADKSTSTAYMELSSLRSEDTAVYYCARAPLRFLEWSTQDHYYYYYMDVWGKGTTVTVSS
Chain of IMC-A12 (antibody) (VL): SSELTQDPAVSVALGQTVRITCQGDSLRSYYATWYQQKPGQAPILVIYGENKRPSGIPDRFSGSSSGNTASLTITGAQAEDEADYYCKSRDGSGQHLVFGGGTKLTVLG

MFI [1]: 40.1 | MFI [2]: 18.3 | MFI [3]: 23
Substance: IMC-A12 (antibody)
